Experimental findings from patent US20100173430A1 are described below.

Test [1] has as its target anti-human Kallikrein 3/PSA antibody (R&D systems). Nature of the test: SPR (BIAcore); protein G layer on gold thin film, anti-PSA antibody 0.5 ug/ml injected.
The target in test [2] is human IgG (Sigma) (human). Nature of the test: SPR (BIAcore); protein G layer on gold thin film, human IgG 100 ug/ml injected.

For “untagged Streptococcal protein G variant recombinant protein (B1 and B2 domains, not tagged with cysteine) (from UniProt P19909 313-497)”, the change in surface plasmon resonance signal is 114 RU in test [1] and 1000 RU in test [2].
